Measurements reported in article PMC5473844, “Structural and Biochemical Characterization of Poly-ADP-ribose Polymerase from Trypanosoma brucei”.

Experiments:
[1] = target: T1, TBP-FL (TbPARP full-length) (Trypanosoma brucei, UniProt Q0PW89 1-573); assay: EMSA; FP: 10 mM HEPES pH 8, 0.1 mM TCEP, 0.1 mM EDTA, 175 mM NaCl, 25 C, 5 nM DNA (250 nM for stoichiometry); EMSA: 50 mM Tris pH 7, 0.1 mM TCEP, 0.1 mM EDTA, 5% glycerol, 100 mM NaCl, room temperature, 0.5 uM DNA; conditions: protein: recombinant; tags: 6xHis-thioredoxin tag removed with TEV; blunt
T1 sequence: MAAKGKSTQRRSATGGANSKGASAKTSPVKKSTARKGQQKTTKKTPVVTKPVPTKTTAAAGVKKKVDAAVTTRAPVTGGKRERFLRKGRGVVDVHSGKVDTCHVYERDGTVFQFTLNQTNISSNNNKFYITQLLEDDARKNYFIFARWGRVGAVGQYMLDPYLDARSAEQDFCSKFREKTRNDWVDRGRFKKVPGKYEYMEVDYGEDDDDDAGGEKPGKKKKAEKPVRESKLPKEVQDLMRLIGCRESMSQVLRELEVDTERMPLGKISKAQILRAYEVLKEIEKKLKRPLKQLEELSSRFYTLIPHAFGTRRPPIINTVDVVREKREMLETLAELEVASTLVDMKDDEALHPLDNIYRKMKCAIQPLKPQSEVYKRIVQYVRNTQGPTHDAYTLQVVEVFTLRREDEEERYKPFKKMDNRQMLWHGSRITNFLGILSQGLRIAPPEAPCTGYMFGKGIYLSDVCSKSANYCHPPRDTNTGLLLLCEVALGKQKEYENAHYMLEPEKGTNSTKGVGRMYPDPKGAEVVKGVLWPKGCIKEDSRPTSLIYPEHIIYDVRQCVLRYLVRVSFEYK

[2] = target: T2, TBP-NW (Trypanosoma brucei, UniProt Q0PW89 1-197); assay: as above; conditions: protein: recombinant; tags: 6xHis-thioredoxin tag removed with TEV; blunt
T2 sequence: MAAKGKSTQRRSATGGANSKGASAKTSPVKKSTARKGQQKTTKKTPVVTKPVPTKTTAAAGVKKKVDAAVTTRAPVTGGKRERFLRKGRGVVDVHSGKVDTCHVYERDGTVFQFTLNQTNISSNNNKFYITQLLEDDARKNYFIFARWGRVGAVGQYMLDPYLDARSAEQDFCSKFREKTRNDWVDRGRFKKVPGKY

[3] = target: T3, TBP-N (Trypanosoma brucei, UniProt Q0PW89 1-100); assay: as above; conditions: protein: recombinant; tags: 6xHis tag removed with TEV; blunt
T3 sequence: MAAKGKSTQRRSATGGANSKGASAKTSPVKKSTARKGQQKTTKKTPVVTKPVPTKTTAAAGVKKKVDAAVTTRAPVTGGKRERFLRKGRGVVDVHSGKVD

[4] = target: T1, TBP-FL (TbPARP full-length); assay: fluorescence polarization (stoichiometry); 50 mM NaCl; non-specific, no clear inflection; FP: 10 mM HEPES pH 8, 0.1 mM TCEP, 0.1 mM EDTA, 175 mM NaCl, 25 C, 5 nM DNA (250 nM for stoichiometry); EMSA: 50 mM Tris pH 7, 0.1 mM TCEP, 0.1 mM EDTA, 5% glycerol, 100 mM NaCl, room temperature, 0.5 uM DNA; conditions: protein: recombinant; tags: 6xHis-thioredoxin tag removed with TEV; label: 5' FAM on strand 1; blunt
[5] = target: T1, TBP-FL (TbPARP full-length); assay: SEC-SAXS; 1:1 complex, non-activating DNA; FP: 10 mM HEPES pH 8, 0.1 mM TCEP, 0.1 mM EDTA, 175 mM NaCl, 25 C, 5 nM DNA (250 nM for stoichiometry); EMSA: 50 mM Tris pH 7, 0.1 mM TCEP, 0.1 mM EDTA, 5% glycerol, 100 mM NaCl, room temperature, 0.5 uM DNA; conditions: protein: recombinant; tags: 6xHis-thioredoxin tag removed with TEV; hairpin, 28 bp stem, TTTT loop, 3' overhang 4 nt
[6] = target: T1, TBP-FL (TbPARP full-length); assay: SEC-SAXS; 2:1 protein:DNA complex, activating DNA; FP: 10 mM HEPES pH 8, 0.1 mM TCEP, 0.1 mM EDTA, 175 mM NaCl, 25 C, 5 nM DNA (250 nM for stoichiometry); EMSA: 50 mM Tris pH 7, 0.1 mM TCEP, 0.1 mM EDTA, 5% glycerol, 100 mM NaCl, room temperature, 0.5 uM DNA; conditions: protein: recombinant; tags: 6xHis-thioredoxin tag removed with TEV; hairpin, 28 bp stem, TTTT loop, 3' overhang 4 nt
[7] = target: T1, TBP-FL (TbPARP full-length); assay: EMSA; higher protein needed for full supershift; FP: 10 mM HEPES pH 8, 0.1 mM TCEP, 0.1 mM EDTA, 175 mM NaCl, 25 C, 5 nM DNA (250 nM for stoichiometry); EMSA: 50 mM Tris pH 7, 0.1 mM TCEP, 0.1 mM EDTA, 5% glycerol, 100 mM NaCl, room temperature, 0.5 uM DNA; conditions: protein: recombinant; tags: 6xHis-thioredoxin tag removed with TEV; 3' overhang 4 nt (TCGA) on strand 1, other end blunt
[8] = target: T1, TBP-FL (TbPARP full-length); assay: fluorescence polarization; low nanomolar affinity (value only in figure); 1:1; FP: 10 mM HEPES pH 8, 0.1 mM TCEP, 0.1 mM EDTA, 175 mM NaCl, 25 C, 5 nM DNA (250 nM for stoichiometry); EMSA: 50 mM Tris pH 7, 0.1 mM TCEP, 0.1 mM EDTA, 5% glycerol, 100 mM NaCl, room temperature, 0.5 uM DNA; conditions: protein: recombinant; tags: 6xHis-thioredoxin tag removed with TEV; label: 5' FAM; single strand

B1: template 1 (dsDNA)
DNA 1: CCAGGACCAGGGCGCAGATCACCTTGTTCTCCA
DNA 2: TGGAGAACAAGGTGATCTGCGCCCTGGTCCTGG
[1]
  binding result: binds
[2]
  binding result: binds
[3]
  binding result: binds

B2: template 20 (dsDNA)
DNA 1: CAGCAGGTACCTGCCCGGCGCCCAGAGAGGAATGCAACACTC
DNA 2: GAGTGTTGCATTCCTCTCTGGGCGCCGGGCAGGTACCTGCTG
[4]
  binding result: binds

B3: template 14 (structured_DNA)
DNA: GCTCTAGTGTAGCATGAGCCTTAGCGCGTTTTCGCGCTAAGGCTCATGCTACACTAGAGCTCGA
[5]
  binding result: binds

B4: template 15 (structured_DNA)
DNA: B3 DNA
modifications: 5' phosphate
[6]
  binding result: binds

B5: template 6 (dsDNA)
DNA 1: CGCGCTAAGGCTCATGCTACACTAGAGCTCGA
DNA 2: GCTCTAGTGTAGCATGAGCCTTAGCGCG
modifications: 5' phosphate on strand 2
[7]
  binding result: binds

## CAGCAGGTACCTGCCCGGCGCCCAGAGAGGAATGCAACACTC (ssDNA) [template 21]
[8]
  binding result: binds
